From publication doi:10.1101/2024.05.09.593331 come the findings set out here.

By Kd is commonly meant the free concentration of one partner at which half of the binding sites on the other are occupied at equilibrium, for simple one-to-one binding.

The subject of this data set is His6-Ubl1 in complex with N;Nucleocapsid (N) protein (SARS-CoV-2;SARS-CoV-2). Put plainly: EMSA. Particulars: 50 mM Tris-HCl pH 8, 150 mM NaCl, 5 mM CaCl2 ([…]. In general terms: A gel shift assay detects complexes by their altered migration in electrophoresis.

5' UTR 1-245 ssRNA came in with an equilibrium dissociation constant (Kd) of 6.2 nM.
